Biological target: E4F1 (UniProt Q66K89)
Experiment: co-IP, immunoblot
Settings: reference: PA28γ wild type; sites T23

Substance: PA28γ (from UniProt P61289) T23A
- binding against the reference: weaker
